The values that follow come from US20220162320A1 (published 2022).

The target of assay [1] is T1, CD3 (reagent of the affinity experiments of Example 18) (UniProt P07766 23-126).
T1 chain: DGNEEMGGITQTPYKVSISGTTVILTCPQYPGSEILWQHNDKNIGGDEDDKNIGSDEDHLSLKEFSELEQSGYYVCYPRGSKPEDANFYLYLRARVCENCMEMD
Put plainly: BLI; aCD3 IgG load. For orientation: BLI is a label-free optical method that tracks binding on a fibre tip over time.

Assay [2] addresses T1, CD3 (reagent of the affinity …). The assay is described as follows: BLI; aCD3 IgG analyte.
For assay [3] the target is unchanged. The assay is described as follows: BLI; aCD3 IgG analyte, apparent KD (bivalent), avid.
The target of assay [4] is T2, HLA-PEPTIDE target G2: HLA-A*01:01_…, recombinant soluble complex (human, enzymatically biotinylated (BirA)). The assay is described as follows: BLI; apparent KD (bivalent), avid.
Assay [5] has as its target T2, HLA-PEPTIDE target G2: HLA-A*01:01_…, …. Put plainly: BLI.
Assay [6] concerns the target T1, CD3 (reagent of the affinity …). The assay is described as follows: BLI.

B1: antibody designated αCD3, in IgG format (antibody, V domains shown)
VH: EVQLVESGGGLVQPGGSLRLSCAASGFTFSTYAMNWVRQAPGKGLEWVGRIRSKYNNYATYYADSVKGRFTISRDDSKNTLYLQMNSLRAEDTAVYYCVRHGNFGDSYVSWFAYWGQGTLVTVSS
VL: QAVVTQEPSLTVSPGGTVTLTCGSSTGAVTTSNYANWVQQKPGKSPRGLIGGTNKRAPGVPARFSGSLLGGKAALTISGAQPEDEADYYCALWYSNHWVFGGGTKLTVLR
Turning to B1, the values for the Kd in assay [1], in assay [2] and in assay [3] were 2.92 nM, 144 nM and < 0.001 nM, respectively.

B2: 4-G2(1H11)-hOKT3 (bispecific antibody)
chain: not shown
heavy: QVQLVQSGAEVKKPGASVKVSCKASGYTFTNYYMHWVRQAPGQGLEWMGMINPSGGGTSYAQKFQGRVTMTRDTSTSTVYMELSSLRSEDTAVYYCARGNPWELRLDYWGQGTLVTVSSGGGGSGGGGSGGGGSGGGGSDIQMTQSPSSLSASVGDRVTITCQASQDISNYLNWYQQKPGKAPKLLIYAASSLQSGVPSRFSGSGSGTDFTLTISSLQPEDFATYYCQQYYSYPFTFGPGTKVDIKGGGGSGGGGSQVQLVQSGAEVKKPGASVKVSCKASGYTFTRYTMHWVRQAPGQGLEWMGYINPSRGYTNYNQKFKDRVTLTTDKSSSTAYMELSSLRSEDTAVYYCARYYDDHYSLDYWGQGTLVTVSSASTKGPSVFPLAPSSKSTSGGTAALGCLVKDYFPEPVTVSWNSGALTSGVHTFPAVLQSSGLYSLSSVVTVPSSSLGTQTYICNVNHKPSNTKVDKRVEPKSCDKTHTCPPCPAPELLGGPSVFLFPPKPKDTLMISRTPEVTCVVVDVSHEDPEVKFNWYVDGVEVHNAKTKPREEQYQSTYRVVSVLTVLHQDWLNGKEYKCKVSNKALPAPIEKTISKAKGQPREPQVCTLPPSREEMTKNQVSLSCAVKGFYPSDIAVEWESNGQPENNYKTTPPVLDSDGSFFLVSKLTVDKSRWQQGNVFSCSVMHEALHNRFTQKSLSLSPGK
light: DIQMTQSPSSLSASVGDRVTITCSASSSVSYMNWYQQKPGKAPKRLIYDTSKLASGVPSRFSGSGSGTDFTLTISSLQPEDFATYYCQQWSSNPFTFGQGTKLEIKRTVAAPSVFIFPPSDEQLKSGTASVVCLLNNFYPREAKVQWKVDNALQSGNSQESVTEQDSKDSTYSLSSTLTLSKADYEKHKVYACEVTHQGLSSPVTKSFNRGEC
For the molecule B2, the results for the Kd in assay [4], in assay [5] and in assay [6] were 2.72 nM, 5.34 nM and 26.1 nM, respectively.
